Measurements as given in patent publication US20150119340A1, “FUSION PEPTIDE AND USE THEREOF FOR CELL MEMBRANE PENETRATING” (Samsung Electronics Co., Ltd., priority 2013, published 2015).

System: MDA-MB-231 cells
Assay: Anticancer effect: cell viability (proliferation assay kit)
Type: cell-based
Conditions: various concentrations, 72 hours after the conjugate treatment, FIG. 11
Method: MDA-MB-231 cells were incubated at the amount of about 5,000-8,000 cells/well in 96 well plate for 24 hours, and then, treated with each of the obtained conjugates MTS-BAA-p16M7 and Tat-p16M7 at various concentrations (refer to FIG. 11). 24 hours or 72 hours after, the viability of the cells was measured by reading the fluorescent intensity of viable cells using titer® proliferation assay kit (Promega) according to manufacturer's manual. The results were normalized based on the results from a control (non-treated) group, and plotted (the value of the control group: “1”). The experiment was conducted in triplicate, and the error was treated using a standard deviation.
The obtained results (results obtained at 72 hours after the conjugate treatment) are illustrated in FIG. 11.

B1: Tat-p16M7: Comparison conjugate of TAT peptide and p16M7 (SEQ ID NO: 20-SEQ ID NO: 16) (protein)
chain: RKKRRQRRRMEPAAGSSMEPSADKLATAAARGRVEEVRALLEAGADPNAPNSYGRRPIQVMMMGSARVAELLLKHGAEPNSADPATSTRPVHDAAREGFLDTLVVLHRAGARLDARDAWGRTPVDLAEELGHRDVARYLRAAAGGTRGSNHARIDAAEGPSDIPD
modifications: Synthetic (TAT peptide); Synthetic (p16 variant (p16M7))
With B1 the “inhibitory effect on cancer cell proliferation (relative viability)” value was “nearly no inhibitory effect on cancer cell proliferation”.
